Assay results: paper PMC7010908

What was measured:
Details in all cases: remark: other sources report otherwise
[1] = biological target: T1, Native pentameric human C-reactive protein (Scripps) (human), P02741; assay: SEC; HiLoad 16/60 Superdex 200 pg, elution buffer B (50 mM tris, 150 mM NaCl, pH 7.2), 0.5 ml/min; pCRP after storage in 20 mM tris, 280 mM NaCl, 1 mM EDTA with 2, 2.5, 3 or 4 M urea at 4°C, 10 weeks
T1 chain: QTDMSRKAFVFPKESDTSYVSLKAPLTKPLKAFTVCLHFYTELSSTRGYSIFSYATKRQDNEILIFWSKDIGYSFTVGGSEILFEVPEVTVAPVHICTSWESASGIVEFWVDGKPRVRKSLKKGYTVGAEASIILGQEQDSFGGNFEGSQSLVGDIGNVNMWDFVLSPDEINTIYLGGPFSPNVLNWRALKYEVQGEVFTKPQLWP

[2] = biological target: T2, C-reactive protein purified from human serum of patients with raised CRP levels (>100 mg/L) (human (endogenous in patient serum)), P02741; assay: SEC; HiLoad 16/60 Superdex 200 pg, elution with buffer A (5 mM CaCl2), 0.5 ml/min; serum CRP first purified by PCho affinity chromatography and eluted with EDTA
T2 chain: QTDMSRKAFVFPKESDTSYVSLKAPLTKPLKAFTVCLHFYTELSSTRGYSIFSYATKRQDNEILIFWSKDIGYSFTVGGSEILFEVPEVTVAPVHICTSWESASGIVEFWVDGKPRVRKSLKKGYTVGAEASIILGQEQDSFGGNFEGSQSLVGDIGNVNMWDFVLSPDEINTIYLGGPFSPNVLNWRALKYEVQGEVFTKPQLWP

[3] = biological target: T3, Commercially sourced native C-reactive protein (Binding Site) (human), P02741; assay: SEC; size exclusion FPLC (recalibrated after a change of column), 0.5 ml/min; 500 μg and 100 μg of PCho affinity purified CRP loaded; fractions at the mCRP position tested by ELISA
T3 chain: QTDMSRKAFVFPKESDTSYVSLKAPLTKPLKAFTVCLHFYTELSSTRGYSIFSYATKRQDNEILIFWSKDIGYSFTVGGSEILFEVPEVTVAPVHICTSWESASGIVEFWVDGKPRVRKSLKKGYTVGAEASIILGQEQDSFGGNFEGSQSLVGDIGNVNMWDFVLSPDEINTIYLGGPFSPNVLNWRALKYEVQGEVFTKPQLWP

B1: Native pentameric human C-reactive protein (Scripps), P02741 19-224 (natural protein)
chain: QTDMSRKAFVFPKESDTSYVSLKAPLTKPLKAFTVCLHFYTELSSTRGYSIFSYATKRQDNEILIFWSKDIGYSFTVGGSEILFEVPEVTVAPVHICTSWESASGIVEFWVDGKPRVRKSLKKGYTVGAEASIILGQEQDSFGGNFEGSQSLVGDIGNVNMWDFVLSPDEINTIYLGGPFSPNVLNWRALKYEVQGEVFTKPQLWP
stoichiometry N [1]: 5

B2: C-reactive protein purified from human serum of patients with raised CRP levels (>100 mg/L), P02741 19-224 (natural protein)
chain: QTDMSRKAFVFPKESDTSYVSLKAPLTKPLKAFTVCLHFYTELSSTRGYSIFSYATKRQDNEILIFWSKDIGYSFTVGGSEILFEVPEVTVAPVHICTSWESASGIVEFWVDGKPRVRKSLKKGYTVGAEASIILGQEQDSFGGNFEGSQSLVGDIGNVNMWDFVLSPDEINTIYLGGPFSPNVLNWRALKYEVQGEVFTKPQLWP
stoichiometry N [2]: 5

B3: Commercially sourced native C-reactive protein (Binding Site), P02741 19-224 (natural protein)
chain: QTDMSRKAFVFPKESDTSYVSLKAPLTKPLKAFTVCLHFYTELSSTRGYSIFSYATKRQDNEILIFWSKDIGYSFTVGGSEILFEVPEVTVAPVHICTSWESASGIVEFWVDGKPRVRKSLKKGYTVGAEASIILGQEQDSFGGNFEGSQSLVGDIGNVNMWDFVLSPDEINTIYLGGPFSPNVLNWRALKYEVQGEVFTKPQLWP
stoichiometry N [3]: 5
